# Laboratory results from the supplement of paper PMC12764529.
# ± gives the half width of the 95% confidence interval.
# Tests used:
# [1] = folding stability dG unfold (combined trypsin and chymotrypsin); higher = more stable
# In short: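 Digests were run with trypsin and chymotrypsin at 11 concentrations in threefold dilutions, plus a no-protease condition, on designed mini-proteins in a PA-tagged cDNA display construct. The mini-proteins were under 80 residues, had no cysteine, and were kept only when AlphaFold2 dimer inter-PAE was above 15. After sequencing, Bayesian fitting of the counts gave K50, from which unfolding free energy was derived against a sequence-predicted unfolded-state K50 and a shared folded-state K50, per protease or combined.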
# [2] = folding stability dG unfold from trypsin proteolysis; higher = more stable
# Procedure: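 Folding stability of de novo designed mini-proteins (<80 aa, no Cys; designed by TrROS, TrMRF, ProteinMPNN and the joint model) was measured by cDNA display proteolysis with trypsin and chymotrypsin. Each protease was used at 11 concentrations in a threefold dilution series plus a no-protease condition. K50 was inferred by Bayesian fitting of sequencing counts, and dG unfold was derived against a sequence-predicted unfolded-state K50 (Tsuboyama et al. method). Sequences shown include variable-length N-terminal GS-type padding (SAGGSAGG...) inside a display construct carrying a PA tag. Rows were kept only if the AF2 dimer inter-PAE was >15, to exclude likely homo-oligomers.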
Sequence,folding stability dG unfold [1] [kcal/mol],folding stability dG unfold [2] [kcal/mol]
SAGGSAGGSMERLENGIERIRLLVRFPERDEVRLIEIPLDNVTPEEIIERARELGAEEIELLESAGGSAGGS [r12_792_TrMRF],-0.545 ± 0.22,0.11 ± 0.26
SAGGSAGGSMIVEKKYSLDPAKGTITTTTTTVTPVPNGDSLIVSTTTTTKSVSPSESPDISSSSAGGSAGGS [r12_700_JUSTAS],-0.553 ± 0.24,-0.39 ± 0.066
SAGGSAGGSMKVITVPLPDGGTTTYEVEKGKVTITYPPSVTKEIEVPDPSKAIENIETVSYKSSAGGSAGGS [r12_32_JUSTAS],< -1,-0.76 ± 0.13
SAGGSAGGSMLTITVKTTDPAKGGSATTVIPVPVPGSVEEARELAEEIKKKLPPEVVEITVLESAGGSAGGS [r12_871_JUSTAS],< -1,-0.294 ± 0.19
SAGGSAGGSMPLRLAPVPIFLPEEEAVPVIEKLIEEGTEGGVGLIVPNVISPEEAGVHPDEPVSAGGSAGGS [r12_93_TrMRF],< -1,-0.263 ± 0.08
SAGGSAGGSMPVEVKFTVEKDPSTDLLTVTVTRPGGEVTPITYPDPNNLEAAKAAAEALAKASSAGGSAGGS [r12_1012_JUSTAS],-0.2 ± 0.41,0.365 ± 0.076
SAGGSAGGSMVEIDPDNLVLTIVDPETGKAAVITAPPTADGTPVIKDVVVFDPDGNPHTFTVDSAGGSAGGS [r12_952_TrMRF],0.13 ± 0.091,0.666 ± 0.022
SAGGSAGGSPPYIRVKIEFQNPNGQERKFKITIPPDQPLSQAKDIAPDFAKNGYPVRIEDIEISAGGSAGGS [r12_804_TrROS],< -1,-0.209 ± 0.17
SAGGSAGGSSAEEIAKELGYKEIEVKPLRPVSTETLDSGGYSQKTEYVTTIKLPDGTEIEIPVSAGGSAGGS [r12_221_JUSTAS],0.275 ± 0.051,0.788 ± 0.025
SAGGSAGGSSSPEEIKAEFKKKGYPKVEVKPVTPDTYLVTVTSPGTGKTTEYPITGSPSGKGLSAGGSAGGS [r12_170_JUSTAS],< -1,-0.822 ± 0.35
SAGGSAGGSSVLRVTVEIPETGETVELTVPPSVTEEDVRARIEAEGHAIEKIEVTESEVPPLASAGGSAGGS [r12_955_JUSTAS],< -1,-0.358 ± 0.096
SAGGSAGGSVKELAKKLNIKEVKVEPVDGEKVTLIKIKVKNKKTKKEYEKTILIKDKKTGKILSAGGSAGGS [r12_133_TrROS_Hall],-0.845 ± 0.38,-0.405 ± 0.23
SAGGSAGGSWPFRIEIYNPENGKEEVKDIPGDLDELKDLIPPGYRVKIEFGDEEITIPIDDIKSAGGSAGGS [r20_36_TrROS],-0.587 ± 0.27,-0.331 ± 0.16
SAGGSAGSMSIEEVVEKAKEEGIEVEVTSLPESGLTVVTITKKLPNGEVVESIILEHPEGTTTVLSSAGGSA [r15_1051_JUSTAS],0.0134 ± 0.14,0.644 ± 0.057
SAGGSAIKITKVEYEPNPDGWREIHFKATPGDPDFLDEIAEALPPDNIEPTEVDEKGYYEIRIPRPSAGGSA [r15_386_TrROS],-0.291 ± 0.17,0.0955 ± 0.058
SAGGSALIVLEGDLDSVVALAKEAGDPNVKVEPVADFNDDPSEPRLYRITIERDGEPDGELLFLDPSAGGSA [r15_428_TrMRF],< -1,-0.0896 ± 0.1
SAGGSAMIRTFNIKFPGKSEEEALEAIKNLPEEVTEKIEEVKVEEIKKEGDSIYVKLTIKVPKEILSAGGSA [r15_244_JUSTAS],0.00147 ± 0.51,0.636 ± 0.19
SAGGSANTIMIPFDDLTPDKILEAAEESPDPIMIHNPDNGRFLTVEVEDGGIDDVTWEPFDPEDFGSAGGSA [r15_751_TrROS],-0.135 ± 0.18,0.499 ± 0.042
SAGGSAPNEEITIPIRIRVENPEDGKPIHEIPIPIKVPKGQTQDQILDQAKNWMEEHGMKIKEIEISAGGSA [r15_195_TrROS],< -1,-1.32 ± 0.86
SAGGSASIDELKEEILAKTPPDVVTTGYATSSDSLSTRTYSTPAGHRVVISYTDNEIKSVSLEKAGSAGGSA [r15_175_JUSTAS],-0.138 ± 0.22,0.333 ± 0.16
SAGGSASVPPGKSVTLRISFPETGEERTITLDVKSSEELEAAAELEVPRPDGTPVPVTVSVVETVPSAGGSA [r15_797_JUSTAS],0.085 ± 0.24,0.386 ± 0.094
SAGGSAVPPSANVGPLKEKIEVTEDPEKGTKTYTRVLKDPATGKTIVETSVIPPDGSVTLVKTVLVSAGGSA [r15_146_JUSTAS],-0.307 ± 0.12,-0.0156 ± 0.073
SAGGSDYVGRVQIDKVDPEDPGQVRINLEWWQPNGKAIPIEHTIPNEQLKNNPPDATIEFKMEPPPSAGGSA [r2_128_TrROS],< -1,-0.514 ± 0.32
SAGGSEVRELAEAIAAARGLPLRAIETKEVTPDTVEITMELPDDRTLTVTVPRSPEGGYEVTVTEDASAGGS [r8_284_JUSTAS],< -1,-0.349 ± 0.26

Sequence,folding stability dG unfold [1] [kcal/mol],folding stability dG unfold [2] [kcal/mol]
SAGGSMIEVEIENPDPSVSPEEIAERVIRELTPDGGPLQPLEIKPTLVGDKPVYKIKIYIPDPELIKESAGG [r13_979_JUSTAS],< -1,-0.519 ± 0.2
SAGGSMPITVSVPVPPDVPLEEVAERIEKELREAGIEADVREVTRVPGEGRILLHFDAGKTGVIPASAGGSA [r2_242_JUSTAS],< -1,-0.251 ± 0.12
SAGGSPKPIAEAILKELGYPDAIVKNIPIEKLENGIIIIPLEVIYPKNPKKGKPIKRIIKPNEKFASAGGSA [r2_137_TrMRF],< -1,0.108 ± 0.095
SAGGSSMEELIKAVLEAAEAGKKAVNVKMPLPDGGEIEILDGGVIRIIPPDGVPLEEKIPVSELILSAGGSA [r2_97_JUSTAS],< -1,0.442 ± 0.044
SAGGSSMLSPSESLPLPPDEDVEVSLPSPLSAKLTYDPATGTVSVTVTDPNNPGVPLSSTTRPLTASAGGSA [r2_266_JUSTAS],-0.203 ± 0.22,0.662 ± 0.037
SAGGTKYTVSLRPPPTALPSREFTDSPLEIVEALPEDTTEATVTVDNNSTSTTVTFTTKEDLIAAVASSAGG [r13_299_JUSTAS],-0.14 ± 0.33,0.00719 ± 0.14
SAGGTPIGDGQTGESSTFDEEVTDPVTGEKVKVKVTIPVTIDPETGKTVRTVTITNPLEGKTTTTLTLSAGG [r13_262_JUSTAS],< -1,-0.379 ± 0.13
SAGGWIPIDEIKDLLDNGKPMPLEQIVKEIQKDFGYPVTIEEDDDSFWIHVENPNTGEPREEIEIDPSAGGS [r8_105_TrROS],-0.392 ± 0.38,0.354 ± 0.11
SAGGYDKEGKPIRVVEINIPPDQPDTILKFAREEIDNNRWDIIHITSPNQVKWIKQAFPEKGIPIHIQSAGG [r13_353_TrROS],-0.167 ± 0.38,0.311 ± 0.3
SAGKVEVKVDEETGTVTVTVEVNGELVEKKVEVKPPPPVKVFSAEELRERNPELKKLLEENPDKLVVLESAG [r5_957_TrROS_Hall],< -1,-0.473 ± 0.26
SAGMEAEAERIAEELERELPPTYRITSITVTPQPDNTWVAPITIEKVDAEGRVLGPSTVTVTLPPGLGSAGG [r19_28_JUSTAS],-0.452 ± 0.14,0.494 ± 0.044
SAGMEIKIEKLEDGTYKITIKLYNKETNEEIEEIEIEVKKLKDGTYKVKIKIKNKETGKEFELEFEIKPSAG [r5_610_TrROS_Hall],> 6,4.02 ± 0.34
SAGMKELVLVERDAPVLGVYLDPETGRPRLEPRPVPVVVVVEVEPDSEAARELAEKLAPEDVRVEVLPASAG [r5_468_TrMRF],-0.483 ± 0.24,0.164 ± 0.05
SAGMKFKPGAKVEVYNKKTKKKIVLPVEELRKLAREKFGVETEEERLAEAIKEKAKENGFEIVKIEPVSAGG [r19_67_TrROS_Hall],-0.0445 ± 0.44,-0.166 ± 0.35
SAGMSSSEVIDIDAGPEKLKELVAKIKKESPNYTIVVTDPETGKPTLLDPSELKNIPGPVKLTITKYPQSAG [r5_437_JUSTAS],< -1,-1.16 ± 0.66
SAGMTTETTEKTAPDGKTRTTTVTYPSEEKAADTTTVVVTETPVETDGSERILTTTTVYKNGVKVATTGSAG [r14_958_JUSTAS],< -1,-0.851 ± 0.56
SAGNIKKGSIYMPEDGWMIKIEYPDPGKEIHIPFDDDLSEIKDNLEEPGFEPVAVEVEPFPPGQPMEISAGG [r19_386_TrROS],< -1,-1.05 ± 0.22
SAGNPKIIEEETIPMPDGGPMKIYVDPEAPRIEIYNPDNGKPEEFPIPPGEKLEFPMPPDGWMTVKVLSAGG [r19_118_TrROS],< -1,-0.279 ± 0.14
SAGSMEVKVEIPEEVLKKIESAPPGTVVEYTETVTITTTTTIPGPGNPVPLTSTTPSPIKLTYTKPSSPSAG [r5_946_JUSTAS],-0.915 ± 0.31,-0.608 ± 0.06
SAKPIPAKDITINMHPPPGGNFNFEIELDDKEIGEHPFKSPEDMQEGMKEIAKELAALLGPDDIKIKPWSAG [r14_791_TrROS],-0.0161 ± 0.25,0.4 ± 0.075
SAKVFTAEEIKALAEELEKAGLEVEAVVLDKDGKIVAVAPKELLKPPPVEEVKEVKVEVEDDPEKLKAAKSA [r9_568_TrROS_Hall],< -1,-0.442 ± 0.97
SALINLKKEDVEKLVKALEKEGNYKVKIKPVKVVYKPKDGSKKPIGAVKIEVIDPDNPKSLLDKIKKAGSAG [r14_628_TrMRF],< -1,-1.29 ± 0.62
SAMIKIEIVLPEEDLEKLLESEEVKELAKELEKKTGLKITSIKIEKKEVEVNGEKKKVVVITIEIEPEPSAG [r14_819_TrROS_Hall],> 6,3.42 ± 0.24
